According to patent US20220257706A1, “EPIDERMAL GROWTH FACTOR RECEPTOR (EGFR) LIGANDS” (NANYANG TECHNOLOGICAL UNIVERSITY, priority 2019, published 2022):

Key:
[1] = target: EGFR-Fc, P00533; experiment: TR-FRET competitive displacement of biotin-EGF from EGFR-Fc
[2] = target: EGFR of HaCaT (human keratinocyte) cells (human), P00533; experiment: cell-based or functional assay

IC50 [1]: 1720 nM | HaCaT cell proliferation (crystal violet, 72 h), EC50 [2]: 130 nM
B1: bleogen pB1 (peptide)
peptide: QCKPNGAKCTEISIPPCCSNFCLRYAGQKSGTCANR
modifications: not checked
